Blank lines part the entries; values can stand above or below the substance they belong to. Where no end group is shown, it is not given here.
Key:
Type in all cases: cell-based
human PTH-1 receptor = target: T1, human PTH-1 receptor (Homo sapiens, UniProt Q03431); assay: cAMP-stimulating activity in HKRK-B7 cells (LLC-PK1 stably transfected with human PTH-1 receptor), RIA; settings: HKRK-B7 cells
T1 construct: expressed in transfected cells; host or cells: HKRK-B7 (LLC-PK1 stably transfected, pCDNA-1-based plasmid)
T1 sequence (Q03431 27-593): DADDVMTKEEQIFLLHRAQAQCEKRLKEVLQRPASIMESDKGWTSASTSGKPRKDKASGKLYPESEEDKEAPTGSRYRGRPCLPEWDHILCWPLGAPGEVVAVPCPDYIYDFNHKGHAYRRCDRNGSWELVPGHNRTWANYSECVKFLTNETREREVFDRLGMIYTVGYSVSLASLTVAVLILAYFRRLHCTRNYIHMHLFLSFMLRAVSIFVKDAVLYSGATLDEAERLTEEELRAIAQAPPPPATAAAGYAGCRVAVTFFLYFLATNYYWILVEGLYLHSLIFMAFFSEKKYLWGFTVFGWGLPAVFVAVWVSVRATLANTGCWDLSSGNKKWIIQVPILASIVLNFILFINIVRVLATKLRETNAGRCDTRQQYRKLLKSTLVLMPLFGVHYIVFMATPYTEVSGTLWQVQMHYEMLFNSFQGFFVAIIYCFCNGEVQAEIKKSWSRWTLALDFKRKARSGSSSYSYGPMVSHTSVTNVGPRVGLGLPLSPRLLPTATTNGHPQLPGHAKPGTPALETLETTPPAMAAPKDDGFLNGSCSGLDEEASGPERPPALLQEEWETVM
Description: FIG. 2. cAMP-stimulating Activity of PTH Fragments in LLC-PK1 Cells. A) Rat PTH(1–34) analog or amino-terminal rPTH fragments were tested for cAMP-stimulating activity in an LLC-P1-derived cell line (HKRK-B7) stably transfected with the human PTH-1 receptor. Cells were treated with peptide at the indicated doses for 60 min at 22° C. Intracellular cAMP was measured by RIA, as described in Experimental Procedures. Shown are combined data (mean±s.e.m.) from 3 separate experiments, each performed in duplicate. B) HKRK-B7 cells, or untransfected LLC-PK1 were treated with rPTH(1–34) or rPTH(1–14), and intracellular cAMP was measured. Shown are data (mean±s.e.m.) from a single representative experiment performed in duplicate.
FIG. 3. Alanine-scan of PTH(1–14). HKRK-B7 cells were treated with 100 mM of one of 14 different rPTH(1–14) analogs, each having a different alanine-substitution at the indicated amino acid position. The resulting cAMP levels were determined as described in Experimental Procedures. Shown are the combined data (mean±s.e.m.) from three separate experiments, each performed in duplicate. The mean (mean±s.e.m.) basal cAMP levels observed in the three experiments was 2.1±0.1 pmole/well, and the maximum response to rPTH(1–34) at 0.1 mM was 254±16 pmole/well.
Cell Culture and DNA Transfection: COS-7 and HKRK-B7 cells were cultured at 37° C. in Dulbecco's modified Eagle's medium (DMEM) supplemented with fetal bovine serum (10%); penicillin G (20 units/ml), streptomycin sulfate (20 μg/ml) and amphotericin B (0.05 μg/ml) in a humidified atmosphere containing 5% CO2. Twenty-four to 16 hours prior to assay, cells in 24-well plates were shifted to a humidified incubator containing 5% CO2 that was set at 33° C. Stock solutions of EGTA/trypsin and antibiotics were from GIBCO; fetal bovine serum was from Hyclone Laboratories (Logan, Utah). Derivation and characterization of the HKRK-B7 cell line by stable transfection of LLC-PK1 cells with a pCDNA-1-based plasmid (In Vitrogen, San Diego, Calif.) encoding the hPTH-1 receptor was described previously (Takasu, H. and Bringhurst, F., Endocrinology, in press (1998)). These cells express PTH-1 receptors at a surface density of about 1×10^6 PTH-binding sites per cell. The HKRK-B7 cells were used for functional assays 24 to 72 hours after the cell monolayer reached confluency.
(§1) Intracellular cyclic AMP: Transfected COS-7 or HKRK-B7 cells were rinsed with 500 ml of binding buffer, (50 mM Tris-HCl, pH 7.7, 100 mM NaCl, 5 mM KCl, 2 mM CaC12, 5% heat-inactivated horse serum, 0.5% heat-inactivated fetal bovine serum) and 200 ml of IBMX buffer (DMEM containing 2 mM IBMX, 1 mg/ml bovine serum albumin, 35 mM Hepes-NaOH, pH 7.4) and […] of binding buffer or binding buffer containing various amounts of peptide were added. The plates were incubated for 60 minutes at room temperature. The buffer was then withdrawn and the cells were frozen on dry ice, treated with 0.5 ml of 50 mM HCl, and refrozen. After the thawing, the lysate was diluted 30-fold in dH20 and an aliquot was analyzed for cAMP content by determined radioimmunoassay using unlabeled cAMP as a standard.
Amino-terminal peptide fragments based on the rat PTH sequence and ranging in length from PTH(1–9) to PTH(1–15) were synthesized and tested for activity in an LLC-PK1-derived cell line called HKRK-B7 which stably expresses high levels (1×10^6 receptors/cell) of the cloned human PTH-1 receptor (Takasu, H. and Bringhurst, F., Endocrinology, in press (1998)).

[1] = target: T2, truncated rat PTH-1 receptor (rΔNt) (Rattus norvegicus, UniProt P25961, E586G); assay: cAMP response in COS-7 cells transiently transfected with truncated rat PTH-1 receptor (rΔNt); settings: secretin(1–27) 1 mM
T2 construct: contains an open reading frame encoding a protein of about 435 amino acid residues; expressed in transfected cells; host or cells: COS-7, transient (DEAE-dextran), pCDNA-1 based plasmid
T2 sequence (P25961 with tags, fused parts or gaps E586G): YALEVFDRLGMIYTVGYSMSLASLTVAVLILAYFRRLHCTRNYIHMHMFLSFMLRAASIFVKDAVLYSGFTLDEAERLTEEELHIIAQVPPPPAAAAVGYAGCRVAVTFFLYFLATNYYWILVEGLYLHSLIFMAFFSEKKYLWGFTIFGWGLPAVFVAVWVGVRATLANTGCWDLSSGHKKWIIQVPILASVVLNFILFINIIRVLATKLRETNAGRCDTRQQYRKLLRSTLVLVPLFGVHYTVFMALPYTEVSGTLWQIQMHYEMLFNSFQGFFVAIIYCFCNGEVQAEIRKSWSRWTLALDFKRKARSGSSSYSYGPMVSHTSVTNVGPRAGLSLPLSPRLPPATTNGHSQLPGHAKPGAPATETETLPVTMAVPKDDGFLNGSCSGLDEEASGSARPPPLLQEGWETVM
Source text: FIG. 4. PTH Responses of Intact and Truncated PTH-1 Receptors in COS-7 Cells. Shown at the top are schematics of the intact (A) and truncated (B) rat PTH-1 receptors used for transient transfection of COS-7 cells, and subsequent cAMP response assays. The conserved extracellular cysteine residues are depicted as open circles and numbered according to sequence position, and the nine amino acids of the epitope tag (HA) in rWT-HA are shaded. The tics at residue 26 and 181 indicate the endpoints of the deletion in rΔNt. Based on the predicted signal peptide cleavage site at Ala-22, residues 23–25 in rΔNt are joined to residue 182. The cAMP responses of COS-7 cells expressing the intact receptor (C) and rΔNt (D) to rPTH(1–34) (J) or rPTH(1–14) (C) are also shown. The graphs show combined data (mean±s.e.m.) from five separate experiments, each performed in duplicate. […]
FIG. 6. Specificity of the Truncated Ligand and PTH Receptor. COS-7 cells transiently transfected with either rWT-HA (A), rΔNt (B), or the intact rat secretin receptor (C), were treated with the indicated peptides for 60 min at 22° C., and the resulting intracellular cAMP levels were quantified by RIA. Concentration of peptides present during the incubations were: rPTH(1–34), 0.1 mM; rPTH(1–14) 100 mM; secretin(1–27). […] Shown are data (mean±s.e.m.) from one experiment performed in duplicate, and this was repeated twice more with equivalent results.
For studies with the intact and truncated rat PTH-1 receptors, transient transfections of COS-7 cells were performed using DEAE-dextran as described previously (Bergwitz, C., et al., J. Biol. Chem. 272:28861–28868)). The construction and initial characterization of the pCDNA-1 based plasmids encodin either the intact or truncated rat PTH-1 receptor has been described previously (Lee, C., et al., Endocrinology 135(4):1488–1495)). […] The truncated rat PTH-1 receptor (rΔNt) is deleted for exons E1 through exon G (residues 26 to 181). Assuming that signal peptidase cleavage occurs between Ala-22 and Tyr-23 (Nielsen, H., et al., Protein Engineering 10:1–6 (1997)), rΔNt is predicted to have for its N-terminus residues Dautzenberg, F., et al., Proc. Natl. Acad. Sci. 95:4941–4946 (1998); Holtmann, M., et al., J. Biol. Chem. 270:14394–14398 (1995); DeAlmeida, V. and Mayo, K., Mol. Endo. 12:750–765 (1998)) joined to Glu-182 (FIG. 3B). COS-7 cells were transfected in 24-well plates when the cells were 85 to 95% of confluency, using 200 ng of plasmid DNA that was purified by cesium chloride/ethidium bromide gradient centrifugation for each well. Assays were conducted 72 to 96 hours after transfection. Under these conditions about ˜20% of the COS-7 cells become transfected and express about 5×10^6 surface PTH receptors per cell (Bergwitz, C., et al., J. Biol. Chem. 272:28861–28868)).
as §1
Experiments utilized COS-7 cells transfected with either the intact rat PTH-1 receptor (rWT-HA, FIG. 4A) or a truncated rat PTH-1 receptor with most of the amino-terminal extracellular domain deleted (rΔNt, FIG. 4B).

rat secretin receptor = target: T3, rat secretin receptor (Rattus norvegicus, UniProt P23811); assay: cAMP response in COS-7 cells transfected with the rat secretin receptor; settings: secretin(1–27) 1 mM; COS-7 cells transfected with the secretin receptor
T3 construct: expressed in transfected cells; host or cells: COS-7, transient
T3 sequence (P23811 26-449): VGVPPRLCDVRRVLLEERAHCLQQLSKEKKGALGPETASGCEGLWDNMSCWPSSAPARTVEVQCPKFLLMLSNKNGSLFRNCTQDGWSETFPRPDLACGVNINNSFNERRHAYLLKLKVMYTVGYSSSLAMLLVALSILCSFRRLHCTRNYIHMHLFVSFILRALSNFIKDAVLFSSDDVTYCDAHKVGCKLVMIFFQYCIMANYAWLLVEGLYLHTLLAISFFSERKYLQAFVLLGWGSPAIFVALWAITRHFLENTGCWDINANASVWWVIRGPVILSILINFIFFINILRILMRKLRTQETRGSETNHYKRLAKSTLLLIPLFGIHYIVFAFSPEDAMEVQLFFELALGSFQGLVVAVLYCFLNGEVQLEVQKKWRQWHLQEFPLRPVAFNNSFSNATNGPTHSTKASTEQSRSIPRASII
Description: FIG. 6. Specificity of the Truncated Ligand and PTH Receptor. COS-7 cells transiently transfected with either rWT-HA (A), rΔNt (B), or the intact rat secretin receptor (C), were treated with the indicated peptides for 60 min at 22° C., and the resulting intracellular cAMP levels were quantified by RIA. […] 1 mM and secretin(1–13), 100 mM. Shown are data (mean±s.e.m.) from one experiment performed in duplicate, and this was repeated twice more with equivalent results.
as §1
In order to test whether PTH(1–14) and rΔNt retained the appropriate recognition specificity for the corresponding parent ligand, cross-reactivity experiments were done using secretin ligands and the cloned rat secretin receptor. […] Cells expressing rΔNt responded to PTH(1–34) and PTH(1–14) but not to secretin(1–27) (1 mM) or secretin(1–13) ([…]) (FIG. 5B). Thus, the recognition specificity of PTH(1–14) and rΔNt appear to replicate that of the intact parent molecules. No evidence for relaxed specificity was detected in these studies (FIG. 6).

doses required for cAMP activation compared with the dose required for PTH(1–34) (human PTH-1 receptor): five to six orders of magnitude higher
increase in intracellular cAMP levels relative to the basal cAMP level (human PTH-1 receptor; 60 min at 22° C.): about 20 fold
Substance: PTH(1–15): Amino-terminal peptide fragment based on the rat PTH sequence, residues 1–15, C-terminally amidated (AVSEIQLMHNLGKHL-NH2)

Substance: secretin(1–13): truncated secretin ligand used in cross-reactivity experiments (HSDGTFTSELSRL; not fully specified (C-terminus); ends and bridges not checked; UniProt P09683 28-40, looked up, fragment)
cAMP response of cells expressing rΔNt (in words) [1]: not

increase in cAMP accumulation (in words) (human PTH-1 receptor): little or no increase
Substance: PH(1–13): Amino-terminal peptide fragment based on the rat PTH sequence, residues 1–13, C-terminally amidated (AVSEIQLMHNLGK-NH2)

Substance: secretin(1–27): secretin ligand used in cross-reactivity experiments
cAMP response of cells expressing rΔNt (in words) [1]: not
increase in cAMP levels (rat secretin receptor): 50 fold
